# Reference: paper PMC3367187
# Read-outs that look alike come from different tables or passages of the source.
# Tests used:
# Assay in all cases: EMSA
# HuRΔH = HuRΔH (UniProt Q15717 1-326, del186-242)
# HuR (wild type) [1] = biological target: T1, HuR (wild type) (UniProt Q15717 1-326)
# HuRΔ3 = HuRΔ3 (UniProt Q15717 1-242, del243-326)
# HuR (wild type) [2] = biological target: T1, HuR (wild type); remark: listed apart in the source
Binder,binding result (HuRΔH),binding result (HuR (wild type) [1]),binding result (HuRΔ3),binding result (HuR (wild type) [2])
HBS_50_MBSp (ssRNA) RNA: GGUAUUUAUUUAUUUAUUUGUUUGUUUGUUUUAUUGCUGUACGAGAGAGUCACUGUGCUGAUGUGGACUCAACAUCUGAUGAGCAACUAUACAACCUACUACCUCAACGUUACACU,binds,binds,binds,
HBSMut_20_MBSp (ssRNA) RNA: GGUAUAUAUGUCAUGCAUACGUAUGUGCGUAUCUACUAGGUCCAAAGAGUGAGACUGACUAUACAACCUACUACCUCAACGUUACACU,,,,no binding
ΔHBS_20_MBSp (ssRNA) RNA: GGAGGUCCAAAGAGUGAGACUGACUAUACAACCUACUACCUCAACGUUACACU,,,,no binding
